Our source for the Kd values is paper PMC4052849 (2014).

This assay addresses T1, DS-SILY20 (decorin mimic, SILY peptide-dermatan sulfate conjugate) (about 20 SILY peptides conjugated via BMPH to dermatan sulfate).
T1 chain: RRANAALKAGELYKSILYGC
The experiment in a line: solid-phase binding assay.

B1: IFN-γ (protein)
chain: QDPYVKEAENLKKYFNAGHSDVADNGTLFLGILKNWKEESDRKIMQSQIVSFYFKLFKNFKDDQSIQKSVETIKEDMNVKFFNSNKKKRDDFEKLTNYSVTDLNVQRKAIHELIQVMAELSPAAKTGKRKRSQMLFRG
Usually Kd stands for the equilibrium constant for the complex coming apart. Higher therefore signals weaker binding. B1: the Kd worked out at 55.1 nM.
